Literature values as cited in PMC3909715.
Like-named read-outs stand apart in the source and are kept apart here.

How the values were obtained:
Cys34 [1] = biological target: T1, Cys34 (UniProt position 58, QYLQQCPFEDH); assay: chemical modification; conditions: reduced thiol; ligand state not stated
Cys34 [2] = biological target: T1, Cys34; conditions: reduced thiol (HSA-SH); ligand state not stated
Cys34 [3] = biological target: T1, Cys34; assay: kinetics; conditions: reduced thiol

## Human serum albumin (HSA) (Homo sapiens)
Cys34 [1]
  pKa: about 8
Cys34 [2]
  pKa: <7
Cys34 [3]; ligand-free (fatty acid-free) HSA
  pKa: 7.9±0.1
Cys34 [3]; ligand state not stated
  pKa: about 8
